Laboratory results from article PMC5887453 (Nucleic Acids Research, 2018).

Columns and labels:
Assay in all cases: native gel or EMSA
[1] = target: T1, Pyrococcus horikoshii elongation factor 2 (PhoEF-2), wild type (Pyrococcus horikoshii, UniProt O59521 1-732)
T1 sequence (looked up): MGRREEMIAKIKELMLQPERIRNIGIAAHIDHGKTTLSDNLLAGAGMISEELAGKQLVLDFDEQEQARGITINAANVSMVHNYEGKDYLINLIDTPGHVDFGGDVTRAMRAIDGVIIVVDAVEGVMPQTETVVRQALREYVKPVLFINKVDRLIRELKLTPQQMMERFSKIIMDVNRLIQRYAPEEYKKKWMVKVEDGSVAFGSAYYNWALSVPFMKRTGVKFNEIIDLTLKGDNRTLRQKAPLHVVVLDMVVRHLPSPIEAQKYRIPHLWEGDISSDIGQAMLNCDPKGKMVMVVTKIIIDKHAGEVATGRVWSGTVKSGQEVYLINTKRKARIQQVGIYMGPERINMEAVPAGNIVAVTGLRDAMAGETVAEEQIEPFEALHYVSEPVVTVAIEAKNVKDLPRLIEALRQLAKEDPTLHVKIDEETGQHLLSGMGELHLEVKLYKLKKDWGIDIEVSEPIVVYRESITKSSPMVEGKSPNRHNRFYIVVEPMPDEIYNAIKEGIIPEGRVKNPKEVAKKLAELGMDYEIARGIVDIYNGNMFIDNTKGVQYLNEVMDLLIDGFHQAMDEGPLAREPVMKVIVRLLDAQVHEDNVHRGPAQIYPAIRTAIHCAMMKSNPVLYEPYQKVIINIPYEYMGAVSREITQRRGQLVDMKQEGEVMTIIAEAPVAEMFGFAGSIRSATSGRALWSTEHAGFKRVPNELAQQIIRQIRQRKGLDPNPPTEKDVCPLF

PhoEF-2 M167S = target: T2, PhoEF-2 M167S (Pyrococcus horikoshii, UniProt O59521 1-732, M167S)
T2 sequence (looked up): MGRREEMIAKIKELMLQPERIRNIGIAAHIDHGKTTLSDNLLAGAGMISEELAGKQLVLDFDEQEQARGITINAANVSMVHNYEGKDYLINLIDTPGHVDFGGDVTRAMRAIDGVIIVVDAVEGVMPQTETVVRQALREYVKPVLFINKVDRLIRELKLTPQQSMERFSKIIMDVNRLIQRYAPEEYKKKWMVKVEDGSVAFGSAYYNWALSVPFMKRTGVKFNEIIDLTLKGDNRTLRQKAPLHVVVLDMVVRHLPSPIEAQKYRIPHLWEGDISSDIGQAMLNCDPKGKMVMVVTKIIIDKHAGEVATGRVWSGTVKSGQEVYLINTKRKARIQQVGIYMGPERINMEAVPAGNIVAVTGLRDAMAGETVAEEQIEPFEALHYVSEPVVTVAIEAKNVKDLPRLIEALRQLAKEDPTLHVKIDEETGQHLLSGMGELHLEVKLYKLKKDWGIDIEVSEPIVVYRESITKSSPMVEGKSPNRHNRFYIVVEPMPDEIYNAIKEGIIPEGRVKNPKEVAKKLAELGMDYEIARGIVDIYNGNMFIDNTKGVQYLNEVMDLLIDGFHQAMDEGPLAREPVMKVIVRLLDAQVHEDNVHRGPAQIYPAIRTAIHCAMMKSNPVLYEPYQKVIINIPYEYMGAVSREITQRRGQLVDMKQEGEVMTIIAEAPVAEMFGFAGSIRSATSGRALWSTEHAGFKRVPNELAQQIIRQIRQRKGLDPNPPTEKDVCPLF

PhoEF-2 P164S = target: T3, PhoEF-2 P164S (Pyrococcus horikoshii, UniProt O59521 1-732, P164S)
T3 sequence (looked up): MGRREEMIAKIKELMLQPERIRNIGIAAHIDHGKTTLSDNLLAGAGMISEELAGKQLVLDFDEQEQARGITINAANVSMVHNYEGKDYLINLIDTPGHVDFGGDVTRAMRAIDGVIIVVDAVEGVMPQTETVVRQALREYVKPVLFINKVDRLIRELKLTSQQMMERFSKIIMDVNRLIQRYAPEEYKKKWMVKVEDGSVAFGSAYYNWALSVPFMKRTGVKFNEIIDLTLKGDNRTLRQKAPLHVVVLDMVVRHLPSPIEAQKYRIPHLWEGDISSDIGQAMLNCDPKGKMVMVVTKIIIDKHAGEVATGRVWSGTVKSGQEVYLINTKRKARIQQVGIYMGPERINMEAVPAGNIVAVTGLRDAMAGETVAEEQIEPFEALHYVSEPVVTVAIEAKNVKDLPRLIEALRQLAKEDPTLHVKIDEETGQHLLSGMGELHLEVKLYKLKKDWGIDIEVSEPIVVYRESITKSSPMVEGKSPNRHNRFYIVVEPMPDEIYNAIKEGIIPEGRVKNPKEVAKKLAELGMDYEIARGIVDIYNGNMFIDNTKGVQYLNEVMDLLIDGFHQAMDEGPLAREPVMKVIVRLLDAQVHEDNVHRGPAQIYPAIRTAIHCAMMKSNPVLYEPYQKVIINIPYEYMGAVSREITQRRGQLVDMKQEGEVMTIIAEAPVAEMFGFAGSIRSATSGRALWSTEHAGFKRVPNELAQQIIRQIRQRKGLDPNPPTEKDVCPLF

Measured: binding result

B1: Pyrococcus horikoshii ribosomal stalk protein P1 (natural protein, UniProt O57705 1-108, looked up)
chain: MEYVYAALLLHSVGKEINEENLKAVLQAAGVEPEEARIKALVAALEGVNIDEVIEKAAMPVAVAAAPAAAPAEAGGEEKKEEEKKEEEEKEEEVSEEEALAGLSALFG
modifications: in the SPR only: biotin on amino groups via a PEG linker (EZ-Link NHS-PEG4-Biotin)
binds: all assays above
